In patent US12636342B2, “TARS derived from Akkermansia muciniphila or fragment thereof, and use thereof” (KOREA RESEARCH INSTITUTE OF BIOSCIENCE AND BIOTECHNOLOGY, priority 2020, dated 2026):

Columns and labels:
[1] = system: human macrophages (THP1); assay: ELISA of immune cytokine secretion in LPS-treated THP1 (inflammatory environment); type: cell-based; settings: THP1, LPS-induced inflammation, 0.1, 0.2, 0.5 μM, 24 h
Description: To determine whether AmTARS affects immune cytokine secretion when cellular inflammation was induced, mouse bone marrow-derived macrophages BMDMs as mouse-derived immune cells and human macrophages THP1 as human-derived immune cells were cultured by way of the same method as in Example 2.
Specifically, the cultured BMDMs and THP1 were treated with lipopolysaccharide (LPS) to induce an inflammatory response and were simultaneously treated with AmTARS at 0.1 μM, 0.2 μM, and 0.5 μM for 24 h to obtain cell cultures. The obtained cell cultures were analyzed for immune cytokine secretion by way of the same method as in Example 2.

[2] = system: macrophage-depleted colitis mice; assay: DSS-induced colitis in macrophage-depleted (Clodrosome) mice; type: in vivo, mouse
Description: To further validate the macrophage-dependent function of AmTARS in improving colitis, we investigated the anti-inflammatory effects of AmTARS in macrophage-depleted colitis mice.
A macrophage-deficient mice were prepared by administration of Clodrosome (administered at a concentration of 200 μL/animal to the abdominal cavity of mice a total of three times on Days 1, 5, and 8), and then the anti-inflammatory efficacy experiment was conducted by way of the same method as in Example 5. Normal mice injected with Encapsome were used as a control.

[3] = Aminoacylation reaction (malachite green phosphate assay); type: biochemical; settings: L-threonine, ATP, 30 min, free Pi at 620 nm
Description: TARS is an […] involved in protein synthesis, and the domain and site involved in its function are well known. The constructed deletion mutants were confirmed to have deletions of parts irrelevant to the function, but the aminoacylation reaction experiment was conducted to determine whether the deletion mutants performed the intrinsic functions thereof appropriately.
Specifically, a 2× reaction solution (100 mM Tris-HCl (pH 7.5), 20 mM MgCl2, 200 mM NaCl, 200 mM KCl, 2 mM DTT, 500 μM ATP, and 5 mM L-threonine) was prepared, and 25 μL of a reaction solution, 20 μL of distilled water, and 5 μL of protein were added to make a final 50 μL volume, followed by incubation for 30 min. Thereafter, a reaction was conducted using a malachite green phosphate assay kit (Bioassay Systems) for 30 min, and the free monophosphate group (Pi) was measured at a wavelength of 620 nm.

[4] = system: BMDMs from TLR2-KO mouse; assay: IL-10 production in BMDMs from TLR2 knock-out mice; type: cell-based
From the text: The TLR2-dependent immune function of AmTARS was further corroborated using TLR2 knock-out (KO) mice. […] However, IL-10 production by […] (U1/U2) was abolished in BMDMs from TLR2-KO mice, providing further evidence that AmTARS regulates host immune cells via its unique regions in a TLR2-dependent manner (FIG. 28D).

[5] = system: BMDMs; assay: Immunoblotting of AmTARS/TLR2-induced signaling molecules in BMDMs; type: cell-based, mouse
Description: (A and B) Analysis of key molecules that inhibit the MAPK and PI3K/AKT signaling pathways. IL-10 produced by BMDMs pre-treated with inhibitors of ERK (PD98059, […]), p38 (SB203580, […]), MSK1/2 (SB747651A, 10 μM), CREB (666-15, 1 μM), PI3K (Wortmannin, 10 μM), and AKT1/2 (AKT1/2, 10 μM) for 1 h before treatment with either PBS or AmTARS for 24 h (n=6 per group) (A). Flow cytometry analysis of M2 macrophages in BMDMs pre-treated for 1 h with the indicated kinase inhibitors, before treatment with either PBS or AmTARS for 24 h (n=3 per group) (B). (C and D) Western blot analysis of MAPK signaling molecules in lysates of BMDMs (C) or THP1 cells (D) treated for different times with 0.5 μM AmTARS. (E) Western blot analysis of lysates of BMDMs pre-treated with α-IgG (Isotype, 1 μg ml-1) or α-TLR2 (1 μg ml-1) for 1 h before treatment with PBS, AmTARS (0.5 μM), or Pam3 (0.5 μM) for 30 min. (F and G) Western blot analysis of PI3K/AKT signaling molecules in lysates of BMDMs (F) or THP1 cells (G) treated with 0.5 μM AmTARS. (H) AmTARS activates both TLR2/1- and TLR2/6-mediated signaling. Activation of AKT, ERK, and CREB was measured by western blot analysis of lysates of THP1 cells pre-treated with α-IgG, α-TLR1, α-TLR2, or α-TLR6 (1 μg ml-1) for 1 h before treatment for 30 min with PBS or AmTARS (0.5 µM). Data shown in (A and B) are representative of three independent experiments, each with similar results (mean±SEM). P-values were calculated using an unpaired two-tailed Student's t-test. Data shown in (C-H) are representative and repeated at least three times.
Subsequently, we conducted immunoblotting assays to measure the time-dependent activation of AmTARS/TLR2-induced signaling molecules in both BMDMs and THP1 cells. AmTARS rapidly activated ERK, p38, and MSK1/2 within 15 min and, subsequently, phosphorylation of CREB at Ser133 (which is essential for IL-10 production) within 30 min in BMDMs (FIG. 31C) and THP1 cells (FIG. 31D). We then compared AmTARS-triggered TLR2 signaling with typical ligand-triggered signaling using Pam3CSK4 (the synthetic canonical TLR2/1 agonist, referred to hereafter as Pam3) in BMDMs stimulated for 30 min. […] By contrast, activation of NF-κB was greater in Pam3-treated BMDMs than in AmTARS-treated BMDMs (FIG. 31E).

B1: Akkermansia muciniphila-derived threonyl-tRNA synthetase (TARS) (protein)
chain: MSEHKERKTLEERQQMSDLERLRHSCAHVLATAICRLWPDAQLAGGPAVDNGFYYDVELDHRISTEDFERIEEEMKKVVKENQVFQKEVISRADAMKMAESGELGALGPRSEPSRFKIDLLNDIPEDEEISLYRNGDFTDLCAGPHVGRTGNCKAFKIMSVASAFYKGDKNRPMLQRIYGTCFPNRTQLDEHLERLEEARRRDHRKLGRELGLFCIDESVGQGLILWKPKGALIRRSLQDFITEELDKLGYSQVYTPNIGKLDLYRTSGHFPYYQESQYAPIPERDAMEKLSQEGASCAELFNGLATGTIEGYMLKPMNCPHHIKIYANDAHSYRDLPVRLAEFGTVYRWEQSGELGGMTRVRGFTQDDAHIFCTPDQLAGEIRQCLGIVKTIFGTLGMTDYRVRLSMRDPESDKYVGSPENWDKAEQALREAAEWLGADYSEEAGEAAFYGPKIDFIVRDAIGREWQLGTVQVDYNLPERFDLHYTGADNKPHRPVMVHRAPFGSMERFTGLLIEHFEGKFPTWLSPEQVRVLPISDKVTDVAAAHRTALAARGVRVTVDETPDKIGAKIRNARLDRVPYMLVLGQREAEDGTVSVRHRDKGDLGAMPFEQFADLVAREIAERHISPVI
modifications: Akkermansia muciniphila TARS
secretion of IL-6 [1]: reduced in a dose-dependent manner
secretion of IL-10 [1]: increased in a dose-dependent manner
secretion of TNF-α [1]: reduced in a dose-dependent manner
colitis-induced body weight loss [2]: no effect
damage score [2]: no effect
disease activity score [2]: no effect
disruption of the epithelial lining [2]: no effect
numbers of IL-10-positive macrophages [2]: did not affect
numbers of inflammatory monocytes [2]: did not affect
shortening of the intestine [2]: no effect
aminoacylation reaction / enzymatic activity [3]: an aminoacylation reaction was shown
IL-10 production [4]: did not induce IL-10 production
activation of CREB, AmTARS versus Pam3 ([5]; BMDMs stimulated for 30 min, 0.5 μM): significantly greater
time to activation of AKT ([5]; BMDMs, 0.5 μM AmTARS): ≤ 15 min
time to activation of ERK ([5]; BMDMs, 0.5 μM AmTARS): ≤ 15 min
time to activation of MSK1/2 ([5]; BMDMs, 0.5 μM AmTARS): ≤ 15 min
time to activation of PI3K ([5]; BMDMs, 0.5 μM AmTARS): ≤ 15 min
time to activation of p38 ([5]; BMDMs, 0.5 μM AmTARS): ≤ 15 min
time to inhibition of GSK3β activity (phosphorylation at Ser9) ([5]; BMDMs, 0.5 μM AmTARS): ≤ 15 min
time to phosphorylation of CREB at Ser133 ([5]; BMDMs, 0.5 μM AmTARS): ≤ 30 min
